Measurements published in PMC5021521, “Coordinated recruitment of Spir actin nucleators and myosin V motors to Rab11 vesicle membranes” (eLife, 2016).
Changes are numbered by the printed parent chain. Names and notes keep the numbering of the source. Values belong to the molecule of their own block, whether it stands above or below them.

Columns and labels:
[1] = tested on: Myc-Spir-2; test: Colocalization with Spir-2 on vesicular structures in HeLa cells; format: cell-based, Homo sapiens; conditions: full-length proteins co-expressed
Method: HeLa cells were seeded on microscope cover glasses and transfected with Myc-epitope-tagged Spir-2 proteins and fluorescently-tagged MyoV and Rab11 proteins as described above. Cells were fixed with paraformaldehyde (3.7% in 1x PBS) for 20 min at 4°C and subsequently permeabilized using 0.2% Triton X-100 (in 1x PBS) for 3.5 min, room temperature. […] Finally, cells were mounted on microscope slides with Mowiol and analyzed with a Leica AF6000LX fluorescence microscope, equipped with a Leica HCX PL APO 63x/1.3 GLYC objective and a Leica DFC350 FX digital camera (1392 × 1040 pixels, 6.45 × 6.45 µm pixel size). 3D stacks were recorded and processed with the Leica deconvolution software module. In case of the MyoVa autoregulation/activation experiments, we quantified the MyoVa expression levels. […] In order to clearly distinguish between vesicular and cytoplasmic MyoVa localization, we imaged either high or low expressing cells and determined the sum of pixel gray values per cell as a measure for the MyoVa expression levels. […] Images were recorded using the Leica LASX software and further processed with Adobe Photoshop and subsequently assembled with Adobe Illustrator.

[2] = tested on: GST-Rab11a-Q70L; test: GST-pulldown from HEK293 lysates; format: binding; conditions: HEK293 lysates over-expressing Myc-Spir-2, Straw-FMN2-FH2-FSI and GFP-MyoVa-FL; N = 2
Method: HEK293 cells were co-transfected with expression vectors encoding Myc-Spir-2-FL, mStrawberry-FMN2-FH2-FSI, eGFP-MyoVa-D-FL and eGFP-MyoVa-D-Q1753R, respectively. 24 hr post transfection, cells were lysed in lysis buffer (25 mM Tris-HCl pH 7.4, 150 mM NaCl, 5 mM MgCl2, 10% (v/v) glycerol, 0.1% (v/v) Nonidet P-40, 1 mM PMSF, protease inhibitor cocktail) and centrifuged at 20,000 x g, 4°C, 20 min to remove insoluble debris. For GST-pulldown assays 65 µg GST-Rab11a-Q70L protein (25 µg GST control) was coupled to GSH-Sepharose 4B beads (1:1 suspension) for 1 hr, 4°C on a rotating wheel. Beads were washed twice with pulldown buffer (25 mM Tris-HCl pH 7.4, 150 mM NaCl, 5 mM MgCl2, 10% (v/v) glycerol, 0.1% (v/v) Nonidet P-40) and subsequently incubated with the cell lysates for 2 hr at 4°C on a rotating wheel. Beads were washed four times with pulldown buffer and bound proteins were eluted with 1x Laemmli buffer and denatured at 95°C for 10 min, then were analyzed by immunoblotting.

[3] = tested on: HeLa cells; test: Subcellular localization by fluorescence microscopy; format: cell-based; conditions: single expression
Method: HeLa cells were seeded on microscope cover glasses and transfected with Myc-epitope-tagged Spir-2 proteins and fluorescently-tagged MyoV and Rab11 proteins as described above. Cells were fixed with paraformaldehyde (3.7% in 1x PBS) for 20 min at 4°C and subsequently permeabilized using 0.2% Triton X-100 (in 1x PBS) for 3.5 min, room temperature. Cells were incubated with anti-c-Myc antibody (9E10, mouse monoclonal, 2 µg/ml, Santa Cruz Biotechnology; RRID: AB_627268) for 1 hr at room temperature and conjugated anti-mouse secondary antibodies (Cy5; from donkey, 3.25 µg/ml, Dianova (RRID: AB_2340820) and TRITC; from donkey, 3.125 µg/ml, Dianova (RRID: AB_2340767)) for 1 hr at room temperature avoiding exposure to light. Finally, cells were mounted on microscope slides with Mowiol and analyzed with a Leica AF6000LX fluorescence microscope, equipped with a Leica HCX PL APO 63x/1.3 GLYC objective and a Leica DFC350 FX digital camera (1392 × 1040 pixels, 6.45 × 6.45 µm pixel size). 3D stacks were recorded and processed with the Leica deconvolution software module. In case of the MyoVa autoregulation/activation experiments, we quantified the MyoVa expression levels. […] In order to clearly distinguish between vesicular and cytoplasmic MyoVa localization, we imaged either high or low expressing cells and determined the sum of pixel gray values per cell as a measure for the MyoVa expression levels. Based on that, we only used cells for the autoregulation analysis having a sum of pixel gray values less than 20 × 10^6 for the expression of GFP-MyoVa-D-FL. Images were recorded using the Leica LASX software and further processed with Adobe Photoshop and subsequently assembled with Adobe Illustrator.

[4] = target: GST-MyoVa-GTD; test: Quantitative GST-pulldown, fluorescence spectroscopy, Spir-2-linker; format: binding, Mus musculus; conditions: 100 nM His6-mCherry-Spir-2-linker (aa 361–519); SPECS buffer (1x PBS, 50 mM NaCl), 20°C; depletion of mCherry fluorescence (ex 548 nm, em 610 nm); ± SEM, n = 4 experimental repeats; read-out: dissociation constant (Kd)
Method: (§1) For GST-pulldown assays, 50 µg of GST-fusion protein was coupled to GSH-Sepharose 4B beads (1:1 suspension) for 1 hr at 4°C on a rotating wheel. Beads were washed twice with pulldown buffer and subsequently incubated with 20 µg His6-mCherry-fusion peptides for 2 hr, 4°C on a rotating wheel. In order to identify the tripartite Spir-2:MyoVa:Rab11a complex, 65 µg GST-Spir-2-GTBM-SB-FYVE was coupled to beads. Subsequently, beads were incubated with 40 µg MyoVa-GTD and 35 µg Rab11a-Q70L simultaneously for 2 hr. Beads were washed four times with pulldown buffer and bound proteins were eluted by 1x Laemmli buffer and denatured at 95°C for 10 min. Pulled proteins were analyzed by immunoblotting.
GST-pulldown assays were performed as described above with increasing concentrations of GST-MyoVa/b-GTD fusion proteins and 100 nM His6-mCherry-Spir-2-linker peptide in SPECS buffer (1x PBS, 50 mM NaCl). Beads were pelleted and the supernatant was centrifuged for 10 min at 20,000 x g to remove potential debris that could disturb the fluorescence measurement. […] The concentration-dependent binding of MyoVa/b-GTD to the Spir-2-linker was determined by fluorospectrometric analysis using FluoroMax-4 Spectrofluorometer (Horiba Jobin Yvon, Bensheim, Germany). The mCherry red fluorescent protein was excited at 548 nm and the emission at 610 nm was recorded (emission maximum). […]

[5] = tested on: Spir-2:MyoVa:Rab11 tripartite complex; test: Analytical gel filtration; format: binding, Homo sapiens; conditions: Superdex 200 10/30; 50 mM Tris pH 8.0, 150 mM NaCl, 2 mM MgCl2, 2 mM TCEP
Method: (§2) Complex formations were analyzed by analytical gel-filtration using Superdex 200 10/30 Increase column (GE Healthcare Life Sciences) and UV light absorbance at 280 nm and 260 nm and Visible light absorbance at 587 nm at flow rate of 0.75 ml/min in 50 mM Tris pH 8.0, 150 mM NaCl, 2 mM MgCl2, 2 mM TCEP buffer. Fractions of 500 µl were collected and analyzed by SDS-PAGE.
(§3) A 100 µl sample of His6-Rab11a-1-173-Q70L at 6 mg/ml, or of MyoVa-GTD at 5 mg/ml or of His6-mCherry-Spir-2-linker at 6 mg/ml were centrifuged at 10,000 x g for 10 min and injected into the column to monitor reference elution profiles of the individual proteins. The proteins were mixed pairwise to the same final concentrations and incubated 30 min at 4°C in a total volume of 100 µl. The two-component complexes (His6-mCherry-Spir-2-linker:MyoVa-GTD and MyoVa-GTD:His6-Rab11a-1-173-Q70L) were confirmed by the elution peak shifts and SDS-PAGE analysis. […] The tripartite His6-mCherry-Spir-2-linker:MyoVa-GTD:His6-Rab11a-1-173-Q70L complex was analyzed at the same concentration of the individual components and confirmed by SDS-PAGE.

[6] = tested on: GST-MyoVa-GTD; test: GST-pulldown with purified proteins; format: binding, Mus musculus; conditions: purified His6-mCherry-Spir-2-linker mutant L408A,L409A; N = 4
Method: as §1

[7] = tested on: GST-MyoVb-GTD; test: GST-pulldown with purified proteins; format: binding, Homo sapiens; conditions: purified His6-mCherry-Spir-2-linker mutant L408A,L409A; N = 4
Method: as §1

[8] = Analytical gel filtration, individual protein; format: physicochemical; conditions: Figure 5—figure supplement 2
Method: as §2, §3

Molecule: GFP-MyoVa-FL: eGFP-tagged full-length MyoVa
colocalization with Spir-2 in words [1]: perfect colocalization
pulldown by GST-Rab11a-Q70L in words [2]: able to pull GFP-MyoVa-FL from cell lysates
subcellular localization in words [3]: even cytoplasmic distribution

Kd [4]: 728 ± 113 nM
B1: mCherry-Spir2-linker: His6-mCherry-hs-Spir2-linker aa 361 - 519 (protein)
chain: GEGWAARGFGSLPCILNACSGDAKSTSCINLSVTDAGGSAQRPRPRVLLKAPTLAEMEEMNTSEEEESPCGEVTLKRDRSFSEHDLAQLRSEVASGLQSATHPPGGTEPPRPRAGSAHVWRPGSRDQGTCPASVSDPSHPLLSNRGSSGDRPEASMTPD
modifications: left off: His6, N-terminal, kept | mCherry, N-terminal, kept
co-elution in gel filtration in words [5]: co-elution of all three proteins

binding to GST-MyoVa-GTD in words [6]: largely impairs binding
binding to GST-MyoVb-GTD in words [7]: largely impairs binding
B2: Spir-2-linker-LALA: His6-mCherry-hs-Spir2-linker-L408A,L409A (protein)
chain: B1 chain with L48A, L49A
modifications: left off: His6, N-terminal, kept | mCherry, N-terminal, kept
notes: His6-mCherry-hs-Spir2-linker-L408A,L409A

B3: MyoVa-GTD: purified hs-MyoVa-GTD aa 1461 - 1853; in Figure 3E the label stands for AcGFP-mm-MyoVa-GTD donor alone (protein)
chain: IRPVNIPRKEKDFQGMLEYKKEDEQKLVKNLILELKPRGVAVNLIPGLPAYILFMCVRHADYLNDDQKVRSLLTSTINSIKKVLKKRGDDFETVSFWLSNTCRFLHCLKQYSGEEGFMKHNTSRQNEHCLTNFDLAEYRQVLSDLAIQIYQQLVRVLENILQPMIVSGMLEHETIQGVSGVKPTGLRKRTSSIADEGTYTLDSILRQLNSFHSVMCQHGMDPELIKQVVKQMFYIIGAITLNNLLLRKDMCSWSKGMQIRYNVSQLEEWLRDKNLMNSGAKETLEPLIQAAQLLQVKKKTDDDAEAICSMCNALTTAQIVKVLNLYTPVNEFEERVSVSFIRTIQMRLRDRKDSPQLLMDAKHIFPVTFPFNPSSLALETIQIPASLGLGFIS
modifications: left off: His6, N-terminal, cleaved
oligomeric state in solution [8]: monomeric in solution
co-elution in gel filtration in words [5]: co-elution of all three proteins
